Values quoted from earlier work, collected in article PMC10219982.

Molecular target: Follistatin (UniProt P19883)
Experiment: SPR

Sequence of UniProt P19883 (P19883 30-344): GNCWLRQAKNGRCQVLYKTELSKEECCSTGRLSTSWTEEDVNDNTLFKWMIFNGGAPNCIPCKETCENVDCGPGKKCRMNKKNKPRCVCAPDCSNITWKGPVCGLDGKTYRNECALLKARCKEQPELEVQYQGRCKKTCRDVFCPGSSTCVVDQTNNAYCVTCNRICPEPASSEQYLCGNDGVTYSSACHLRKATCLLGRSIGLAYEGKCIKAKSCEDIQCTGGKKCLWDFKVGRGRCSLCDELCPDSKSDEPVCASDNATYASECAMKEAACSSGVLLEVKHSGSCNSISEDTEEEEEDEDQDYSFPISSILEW

- Kd: 22.5 nM
Substance: BMP4 (from UniProt P12644)
